Experimental data taken from US20240115742A1, “FLUORINATED FIBERS FOR MULTIMODAL 1H AND 19F MRI, ULTRASOUND, FLUORESCENCE DETECTION AND CONFORMATIONAL AND TEMPERATURE DETECTION BY 19F MRS” (New York University, priority 2022, published 2024).
Where two headings read alike, the source gives them in different places. Square brackets hold non-standard residues; d marks the D form. Ends that are not written are not given here. LTF = trifluoroleucine

What was measured:
[1] = CD temperature scans (melting temperature); assay type: physicochemical
Description: Circular Dichroism Spectroscopy. Secondary structure was first assessed using the Jasco J-815 CD spectrometer with a PTC-423S single position Peltier temperature control system. Wavelength scans were performed from 190 to 250 nm using 15 μM samples at 1 nm step sizes at 25° C. Temperature scans were performed at α-helical minimum 222 nm from 20 to 85° C. The mean residue ellipticity (MRE) was calculated as described previously. MRE at 222 nm and 208 nm and their ratios were used to assess relative helicity.
Circular Dichroism Spectroscopy. The secondary structure of Q2LTF and QLTF was assessed using a Jasco J-815 circular dischroism (CD) spectrometer with a PTC-423S single position Peltier temperature control system. Wavelength scans were performed from 195 to 250 nm at 1 nm step sizes by diluting the protein into water (at approximately 10 μM) in order to minimize the effects of sodium chloride. […] The mean residue ellipticity (MRE) was calculated as described.

[2] = Confocal microscopy of CCM-bound fibers; assay type: physicochemical; details: 50 μM protein saturated with CCM, pH 4.0
Description: Confocal Microscopy. Protein bound to CCM was studied by measuring 50 μM protein samples saturated with CCM as determined by fluorescent spectroscopic drug binding with a final 1% v/v DMSO (or 2×Kd). 10 μL of protein was added to a micro slide and a 22×22 mm #1 microscope cover glass. Slides were inverted and imaged using a Leica TCS SP8 X Laser Confocal Microscope using a dry 10× objective at RT. CCM was excited using a 460 nm line of the laser, and images were taken using a 470 to 550 nm detection window.
Confocal Microscopy. Q2LTF was diluted to 50 μM and saturated with 40 μM of curcumin (solubilized in DMSO) as determined by the binding affinity in drug-binding experiments. […] 5 μL of sample was deposited onto a microslide and covered with a 22×22 mm #1 microscope cover glass. Images were taken with a Leica TCS SP8 X laser confocal microscope using a dry 10× objective at RT. Samples were excited at 460 nm and images were taken with a 470-550 nm detection window.

[3] = ATR-FTIR peak deconvolution of secondary structure; assay type: physicochemical
Description: Attenuated Total Reflectance-Fourier Transform Infrared Spectroscopy. Secondary structure of protein fiber variants was confirmed using attenuated total reflectance-Fourier transform infrared (ATR-FTIR) spectroscopy using the Nicolet 6700 Fourier Transform Infrared Spectrometer equipped with a diamond ATR accessory and a mercury cadmium telluride (MCT)-A detector. Spectra were collected for 5 μL of 500 μM protein from 4000-400 cm^−1 with 0.5 cm^−1 increments at room temperature (RT). For CCM bound protein, protein was bound at a final concentration of 500 μM and saturated with CCM as determined by fluorescent spectroscopic drug binding with a final 1% v/v DMSO. Sample spectra were normalized using buffer background and analyzed from 1700-1600 cm^−1 corresponding to the amide I region. Peaks were deconvoluted using Gaussian functions in PeakFit software until the goodness of fit reached r^2≥0.99. Peaks were associated with secondary structure were determined by methods known in the art.
(§1) Attenuated Total Reflectance-Fourier Transform Infrared Spectroscopy. Secondary structure of Q2 protein was confirmed using attenuated total reflectance-Fourier transform infrared (ATR-FTIR) spectroscopy using the Nicolet 6700 Fourier Transform Infrared Spectrometer equipped with a diamond ATR accessory and a mercury cadmium telluride (MCT)-A detector. Spectra were collected for 5 μL of 2 mM protein from 4000-400 cm^−1 with 0.5 cm^−1 increments. Sample spectra were normalized using buffer background and analyzed from 1700-1600 cm^−1 corresponding to the amide I region. Peaks were deconvoluted using Gaussian functions in PeakFit software until the goodness of fit reached r^2>0.99.
as §1, with “of Q2LTF and QLTF” for “of Q2”, “using a” for “using the”, “of 1” for “of 2”, “with 4.0” for “with 0.5”, “reached r^2≥0.99.” for “reached r^2>0.99.”
Attenuated Total Reflectance-Fourier Transform Infrared Spectroscopy. Secondary structure before (solution) and after gelation (gel) was also assessed by peak deconvolution of attenuated total reflectance-Fourier transform infrared (ATR-FTIR) spectra. ATR-FTIR measurements were performed using a Nicolet 6700 Fourier Transform Infrared Spectrometer equipped with a mercury cadmium telluride (MCT)-A detector. Spectra were collected for 5 μL samples of protein at 2 mM from 4000-400 cm^−1 with a 4.0 cm^−1 resolution, normalized, and buffer-subtracted prior to analysis from 1700-1600 cm^−1, corresponding to the amide I region. ATR-FTIR measurements were performed immediately after concentration to 2 mM for solution measurements and after. Peaks were deconvoluted using Gaussian functions in PeakFit software until the goodness of fit reached r^2≥0.99.

[4] = TEM of protein fibers; assay type: physicochemical; details: fibers, 50 mM NaH2PO4 pH 4.0
Description: (§2) Transmission Electron Microscopy. Transmission electron microscopy (TEM) images were taken with a FEI Talos L120C transmission electron microscope. Protein fiber samples were diluted to 50 μM and 3 μL was spotted on Formvar/carbon-coated copper grids followed by 5 μL wash with water, and 3 μL staining with 1% v/v uranyl acetate solution each with incubation times of 1 min at RT. Fibrils were sized in ImageJ software (Version 1.52q).
as §2, with “Samples” for “Protein fiber samples”, “by a” for “by”, “min. Between steps, filter paper was used to wick the grids. Following imaging, fibrils” for “min at RT. Fibrils”

[5] = previous studies, cited from earlier work

Molecule	melting temperature ([1]; CCM-bound, pH 4.0) [°C]	melting temperature ([1]; native, 50 mM NaH2PO4 pH 4.0) [°C]	fiber diameter after CCM binding (confocal) [2] [μm]	aggregated strands ([3]; native) [%]	antiparallel β-sheet/aggregated strands ([3]; native) [%]	aggregated strands ([3]; w/CCM) [%]	antiparallel β-sheet/aggregated strands ([3]; w/CCM) [%]	average protein fiber diameter (TEM) [4] [nm]	melting temperature [5] [°C]	aggregated strands ([3]; fluorinated constructs, Tris buffer) [% composition]	melting temperature ([5]; Na2HPO4 pH 8.0)
C2: C variant with redistributed electrostatic patches, SEQ ID NO: 22 (MRGSHHHHHHGSIEGRMQLAKHMLKELQKTNALQSVRTLLQQQVEEITQLKETVENSDSS) [Protein C2]	69.6±7.8	49.4±1.1	6.89±2.54	5.3	15.0	9.0	4.8	73±18			
QLTF: Q with leucines replaced by trifluoroleucine, SEQ ID NO: 19 (MRGSHHHHHHGSIEGRVKEITF[LTF]KNTAPQM[LTF]RE[LTF]QETNAA[LTF]QDVRE[LTF][LTF]RQQSK[LTF]; ends and bridges not checked) [reference compound]									52	17.4	
C: cartilage oligomeric matrix protein coiled-coil with His tag, SEQ ID NO: 21 (protein, His tag) MRGSHHHHHHGSIEGRAPQMLRELQETNAALQDVRELLRQQVKEITFLKNTVMESDASGKL	51.8±4.3	56.0±2.6	4.91±1.49	10.0	11.5	20.8	0.0	47±22			41-42 °C
